Measurements reported in the supplement of paper PMC9170038.

System: MS2 coat protein
Test: apparent KD of MS2 coat protein; designed switch direction (-1 OFF switch, 1 ON switch): -1; higher = weaker reporter binding
Method in brief: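 Designed RNA switches with common flanks were made on Illumina chips by stalled E. coli RNA polymerase. Titration with SNAP-549-labelled MS2 coat protein doubled from 0.7 or 1.5 nM up to 3 µM. Apparent KD is each design's median over clusters after curve-fitting normalised fluorescence.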

[1] = Eterna round: R95, input ligand: FMN 200 uM
[2] = Eterna round: R95, input ligand: microRNA oligo, concentration not stated
[3] = Eterna round: R95, input ligand: none
[4] = input ligand: microRNA oligo, concentration not stated

| Sequence | apparent KD of MS2 coat protein (input ligand: FMN 200 uM) | apparent KD of MS2 coat protein (input ligand: none) | apparent KD of MS2 coat protein [1] | apparent KD of MS2 coat protein [2] | apparent KD of MS2 coat protein [3] | apparent KD of MS2 coat protein [4] |
| --- | --- | --- | --- | --- | --- | --- |
| AGAUUAAAUGAGGAUAUCGUAUUGGAUAUAGUGCGAGAAGGCAUGACAUGAGGAUCACCCAUGUAGUGUUGGGA [JR_Ex6_Sub009] (Eterna round: R97, puzzle: Exclusion 6) | 0.0915 µM | 0.0434 µM | – | – | – | – |
| AUGAACAAGCUUUUUGCAAACAUGAGGAUCACCCAUGUCUUAUAUCGUACCAUGCUAGGCCCUAGCAUGGUACGAUU [jl sellena mod 2] (Eterna round: R97, puzzle: Sensor, turn-off variant 1) | 0.0176 µM | 0.0146 µM | – | – | – | – |
| GCGGGUUUUUUGUUCGUUUACAUGAGGAUCACCCAUGUGUCUUCGCGUUCGGGUUCGGGCGGGCUUGGGCUUGGGCG [-26.2, -50.6, A 8%] (Eterna round: R97, puzzle: Sensor, turn-off variant 1) | 0.0474 µM | 0.0478 µM | – | – | – | – |
| CUGAGUUGAGGAUAUACAUGAGGAUCACCCAUGUAAAGUAGCUUGCGUACAGGCAGAUGUAGAAGGCAAUUCGG [Mod of JL 3 - Jieux - Exclusion 3] (Eterna round: R97, puzzle: Exclusion 3) | 0.0376 µM | 0.0245 µM | – | – | – | – |
| CAAAAGAGAGGAUAUACAUGAGGAUCACCCAUGUAAAGUCCGCUGGUUGUUCAGAUAUGUAGAAGGCUCGUGUC [EX3 C.5] (Eterna round: R97, puzzle: Exclusion 3) | 0.0169 µM | 0.0144 µM | – | – | – | – |
| AUAUGCAAGUAAAGAUCCUACAUGAGGAUCACCCAUGUGCUCGUCUUAUAAAGUACUAUCACGAAAGUGAUAGUACA [Mat - Sensor v3 - turn-off var 1 - Eli Mod - D84] (puzzle: Sensor v3, turn-off variant 1) | – | – | 0.215 µM | 0.0156 µM | 0.17 µM | – |
| GAGUACUGAGGAUAUACAUGAGGAUCACCCAUGUGUUCCAACUAGGAAUCUAGAAUGUGUAGAAGGCAGUGCUG [salish99_ex3_r4_703] (Eterna round: R97, puzzle: Exclusion 3) | 0.298 µM | 0.262 µM | – | – | – | – |
| UUUAUAAUAAGAUCAAUUAAUUAACAUGAGGAUCACCCAUGUGAGGAUAUCAGCUCGUGUAGAGCUGAGAAGGCACAAUAUAAG [ExNG3/17-B3] (Eterna round: R96, puzzle: Exclusion NG 3) | – | – | – | – | – | 0.0362 µM |
| AUAUCAAGCAAGGAUAUGCAAAUGGUUAUUUAUGCAGAAGGUGCAACAUGAGGAUCACCCAUGUUUCUGGGUUU [JR_E6_Sub049] (Eterna round: R96, puzzle: Exclusion 6) | 0.124 µM | 0.0557 µM | – | – | – | 0.0417 µM |
| GUUAAACAUGAGGAUCACCCAUGUAAGGAUAUGCUGCGGUCGCGCUGACGUGACUGCAGCAGAAGGUACAAUUG [Mat - Mod of JL D51] (puzzle: Exclusion 1) | – | – | – | 0.0648 µM | – | – |
| CAGGACUUAGGAUAUCAUGUGCGAGACAUGAGGAUCACCCAUGUAGGAAGCCGUCGCGGGUGAGAAGGAGGGCGAU [Exclusion 5 S1] (puzzle: Exclusion 5) | – | – | 0.266 µM | 0.277 µM | 0.366 µM | – |
| AGUCGGUCAGGAUAUGCAAACGUAGACAUGAGGAUCACCCAUGUAACGUGGGCCUGGUUUGUAGAAGGGACGAGCA [EX5 #85] (Eterna round: R97, puzzle: Exclusion 5) | 0.0382 µM | 0.0282 µM | – | – | – | – |
| UUAAUGUGAGGAUAUCAGGUGUGCUAGCGUACUGGUACAUCUGAGAAGGCACAUGAGGAUCACCCAUGUUCCAG [JL-ex4-3.29 Brourd mod] (puzzle: Exclusion 4) | – | – | – | 0.0305 µM | – | – |
| UAUUAGCAAGUGAGAUCCGACAUGAGGAUCACCCAUGUGCUCGUCUUAUAAGGUAAUAUGACAAAAGUCAUAUUACC [Elimod 5 - Jieux - Sensor, turn-off variant 1] (Eterna round: R97, puzzle: Sensor, turn-off variant 1) | 0.301 µM | 0.293 µM | – | – | – | – |
| UUUUUAUAUGAAGGAUAUACUUAACAUGAGGAUCACCCAUGUGGUGUUGUGAGUGAGUGAGUUUAGUAGAAGGUCAAUGAUUCU [JMF's solution 61] (Eterna round: R96, puzzle: Exclusion NG 2) | 0.864 µM | 0.419 µM | – | – | – | 0.299 µM |
| GUCAGGAAUGUAGGAUAUCUGCACGAUUAGUGCAGAGAAGGACAUGAGGAUCACCCAUGUAUAGUAGCUUCGGCUACACCUGAC [ENG1-A1] (Eterna round: R96, puzzle: Exclusion NG 1) | 0.0167 µM | 0.0195 µM | – | – | – | 0.014 µM |
| GGUGCGUAUGUGAGGAUAUGCUGGUCCUUGGAUCAGCAGAAGGCACAUGAGGAUCACCCAUGUGGUGUCGUACG [salish99_Bmod_Ex4_012] (puzzle: Brourd's mod of Exclusion 4) | – | – | – | 0.0546 µM | – | – |

| Sequence | apparent KD of MS2 coat protein (input ligand: FMN 200 uM) | apparent KD of MS2 coat protein (input ligand: none) | apparent KD of MS2 coat protein [1] | apparent KD of MS2 coat protein [2] | apparent KD of MS2 coat protein [3] | apparent KD of MS2 coat protein [4] |
| --- | --- | --- | --- | --- | --- | --- |
| UGCUGACGAGGAUAUACAUGAGGAUCACCCAUGUUGGUCAAGCGACGAUAGUCGCAAUGUAGAAGGCGUCAGCA [E3/8-A2] (Eterna round: R97, puzzle: Exclusion 3) | 0.239 µM | 0.405 µM | – | – | – | – |
| UUAUACGCUGAGGAUAUCUUCACUAAAGUGUGAAGAGAAGGCGGUACAUGAGGAUCACCCAUGUCUAUGGGCAG [Ex-6 Malc#18] (puzzle: Exclusion 6) | – | – | 0.596 µM | 0.568 µM | 0.282 µM | – |
| CCAAGCAAAAUCAUUAACAACAUGAGGAUCACCCAUGUGUAAGCAAUUAUGUUUGGGCUCUUUAGAGCUCGUCUUAU [JR_STOV1_Sub044] (Eterna round: R97, puzzle: Sensor, turn-off variant 1) | 0.0135 µM | 0.0142 µM | – | – | – | – |
| AAUAAUUGUGACUUGGGUGACAUGAGGAUCACCCAUGUCACAAGCUUGUUGCUCGCCUUAUAAUUAACCCAUGUCAC [LRO Sensor-off var1-26 mod of Stov1-13-A1 by Brourd] (Eterna round: R97, puzzle: Sensor, turn-off variant 1) | 0.0705 µM | 0.0806 µM | – | – | – | – |
| UUGUCGCAUGUAGGAUAUGUAUGUUAUUAUCAUACAGAAGGACAUGAGGAUCACCCAUGUGUAUUAUUAUUAUAUGUUACAUAU [MOD of Hoglahoo's a different Title] (Eterna round: R96, puzzle: Exclusion NG 1) | – | – | – | – | – | 0.014 µM |
| AAGAGUGCAGGAUAUACUUGUUAGGACGGUUGGAUGAAUGGACAUGAGGAUCACCCAUGUAGAAGGGCAGAGAG [JR_Exclu2_Sub051] (puzzle: Exclusion 2) | – | – | 0.0339 µM | 0.0302 µM | 0.0413 µM | – |
| UAAAUGCUGCGAGGAUAUACAUGAGGAUCACCCAUGUGGAUGUCUGAGGCUUUGCCUCAGACGAUGUAGAAGGCGCAGUAAAAU [Mat - Exclusion NG 2 - Mod of JL - D52] (Eterna round: R96, puzzle: Exclusion NG 2) | 0.134 µM | 0.0225 µM | – | – | – | 0.0157 µM |
| AGAUGCUCGAGUCAACAUGAGGAUCACCCAUGUACAGUUAAUGAGGAUAUCUGAGACAAAUAGUAGGAGAAGGCGUGAACAUGA [Ex NG3 #12] (Eterna round: R96, puzzle: Exclusion NG 3) | 0.0321 µM | 0.0396 µM | – | – | – | 0.069 µM |
| AUCAUGUCAGGAUAUAUGACAUGGCUCUUCGGAGCAAGCUCAUAGAAGGGACAUGAGGAUCACCCAUGUAGAGC [Ex4-3: 22] (puzzle: Exclusion 4) | – | – | – | 0.0221 µM | – | – |
| ACUUAUAGAGGAUAUACAGUUUAUUACAUGAGGAUCACCCAUGUUCUUCAAUGUAUAUAAGUAGAAGGCUAAGGAA [EX-5 Malc#5] (Eterna round: R96, puzzle: Exclusion 5) | – | – | – | – | – | 0.0337 µM |
| GUAGAGUCAGGAUAUACGAGAUCGAAAGAUCAGCGAUCCUUACAUGAGGAUCACCCAUGUAGAAGGGACUCUAC [Omei mod 11 to Eli's favorate candidate (ch.parushev)] (Eterna round: R97, puzzle: Exclusion 2) | 0.254 µM | 0.0243 µM | – | – | – | – |
| GAUCUACAUGAGGAUCACCCAUGUGAGGAUAUUUAGACCAACGCUCUAGCUGUUGAUGGAAGAAGGCACCACCG [Eternabot (L2) Solution 56] (Eterna round: R97, puzzle: Exclusion 1) | 0.0254 µM | 0.0262 µM | – | – | – | – |
| CUCGGGCUGGUGAGGAUAUCGGGCUCUAAAGGGCUCGAGAAGGCACAUGAGGAUCACCCAUGUAAUGGCUCGGG [-29.3, -27.9 kcal, A 23%, 4-4bis] (Eterna round: R97, puzzle: Brourd's mod of Exclusion 4) | 0.0173 µM | 0.0245 µM | – | – | – | – |
| CACACACAUGAGGAUCACCCAUGUCAGGAUAUCGACACACACCCACACAAACAAACCACGAGAAGGGACGGCCA [E4 1] (Eterna round: R97, puzzle: Exclusion 1) | 0.037 µM | 0.0486 µM | – | – | – | – |
| CACUGGACAGGAUAUGUUCUUGAGCACUUGAGGAUCACCCAAGUCAUCAAGAACUCAGGCACAGAAGGGUUUAUGC [salish99_ex5_r4_012] (Eterna round: R97, puzzle: Exclusion 5) | 0.0247 µM | 0.014 µM | – | – | – | – |
| ACAUGAGGAUCACCCAUGUGGACGAAAAGGCUCAUGUAGAGUGAGGAUAUGUGAGACGAACGAGAACAGAAGGCACAAGACAGG [Deportation 5 - Jieux - Exclusion NG 3] (Eterna round: R96, puzzle: Exclusion NG 3) | 0.0174 µM | 0.02 µM | – | – | – | 0.0223 µM |
| AGUUCUAACACGUUGGUGUUAGUACCAUAAGCUUGUGAUACAUGAGGAUCACCCAUGUCCUCAUAAGCUCGUCUUAU [salish99_TOv2_r3_1001] (puzzle: Sensor v3, turn-off variant 2) | – | – | 0.0268 µM | 0.4 µM | 0.0219 µM | – |
